The target of series [1] is ParB 65–139 (C-terminal DNA-binding RHH domain of pCXC100 ParB) (Leifsonia xyli subsp. cynodontis (plasmid pCXC100)) (UniProt Q6ABV9). Kind of series: crystal structure.
Series [2] addresses T1, ParB 65-139 (RHH domain) (Leifsonia xyli subsp. cynodontis …, UniProt Q6EEF9 65-139).
T1 sequence: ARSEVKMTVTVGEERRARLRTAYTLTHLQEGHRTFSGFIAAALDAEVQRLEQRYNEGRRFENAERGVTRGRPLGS
Briefly: EMSA. For orientation: A gel shift assay detects complexes by their altered migration in electrophoresis.

In series [3] the target is T1, ParB 65-139 (RHH domain). Kind of series: ITC. On the technique in general: Isothermal titration calorimetry measures the heat released or taken up as one component is titrated into another.
Series [4] has as its target T1, ParB 65-139 (RHH domain). Briefly: EMSA. The source holds these as a separate data set.
Series [5] concerns the target T1, ParB 65-139 (RHH domain). Kind of series: EMSA. The source holds these as a separate data set.
Series [6] concerns the target T1, ParB 65-139 (RHH domain). Briefly: ITC. The source holds these as a separate data set.
For series [7], the target named is T1, ParB 65-139 (RHH domain). Kind of series: ITC. The source holds these as a separate data set.
The target in series [8] is T1, ParB 65-139 (RHH domain). Kind of series: ITC. This is another data set of the same source.
Series [9] addresses T1, ParB 65-139 (RHH domain). Kind of series: ITC. The source holds these as a separate data set.
Series [10] concerns the target T1, ParB 65-139 (RHH domain). Kind of series: ITC. The source holds these as a separate data set.
The target of series [11] is T1, ParB 65-139 (RHH domain). Briefly: EMSA. This is another data set of the same source.
The target of series [12] is T1, ParB 65-139 (RHH domain). Briefly: EMSA. The source holds these as a separate data set.
The target of series [13] is T1, ParB 65-139 (RHH domain). Briefly: EMSA. This is another data set of the same source.
For series [14], the target named is T1, ParB 65-139 (RHH domain). Briefly: EMSA. The source holds these as a separate data set.
Series [15] concerns the target T1, ParB 65-139 (RHH domain). Kind of series: ITC. This is another data set of the same source.

This note sets out measurements from PMC3074162.

In general, stoichiometry N refers to a count of units in the complex or per binding partner. “ParB 65–139 (C-terminal DNA-binding RHH domain of pCXC100 ParB) (from UniProt Q6ABV9 65-139) (domain or fragment)” had a stoichiometry N in [1] of 2.

B1: R4-18-3 (dsDNA)
DNA 1: GGTGGAAAAGCCAGAAAC
DNA 2: GTTTCTGGCTTTTCCACC
Regarding B1, the binding result in series [2] is listed as “binds”.

B2: R4-18-2 (dsDNA)
DNA 1: GTGGAAAAGCCAGAAACA
DNA 2: TGTTTCTGGCTTTTCCAC
As for B2, the binding result in series [2] is listed as “binds”.

B3: R3-18-18G (dsDNA)
DNA 1: GGAATAGGTGGAAAAGCG
DNA 2: CGCTTTTCCACCTATTCC
Usually Kd stands for the constant that tells how readily two partners part at equilibrium. B3: the Kd in series [3] was determined as 70 ± 17 nM.

B4: R2R3-27 (dsDNA)
DNA 1: AGTAAAGTAGGAATAGGTGGAAAAGCC
DNA 2: GGCTTTTCCACCTATTCCTACTTTACT
With B4, the binding result in series [4] is given as “binds”.

B5: 1R3'-18 (dsDNA)
DNA 1: GGAAAAGGTGGAAAAGGT
DNA 2: ACCTTTTCCACCTTTTCC
B5: the binding result in series [5] is on record as “binds”.

B6: R8-18 (dsDNA)
DNA 1: GGAAAAGCTGGAATTGTT
DNA 2: AACAATTCCAGCTTTTCC
B6 registered a Kd in series [3] of 56 ± 12 nM.

B7: R4-14 (dsDNA)
DNA 1: AAAAGCCAGAAACA
DNA 2: TGTTTCTGGCTTTT
With B7, in [3], the binding result is “no binding”.

B8: R3-18 (dsDNA)
DNA 1: GGAATAGGTGGAAAAGCC
DNA 2: GGCTTTTCCACCTATTCC
For the molecule B8, the Kd was found to be 30 ± 10 nM in series [6], 37 ± 10 nM in [7] and 31 ± 12 nM in [8].

B9: R4-18+4 (dsDNA)
DNA 1: AAGCCAGAAACAGTGGGA
DNA 2: TCCCACTGTTTCTGGCTT
Take B9: in [2], the binding result was “binds”.

B10: R10-18 (dsDNA)
DNA 1: TGCTACGGTAGAACACGC
DNA 2: GCGTGTTCTACCGTAGCA
For the molecule B10, the binding result in [9] is reported as “no binding”.

B11: R3-18-10A (dsDNA)
DNA 1: GGAATAGGTAGAAAAGCC
DNA 2: GGCTTTTCTACCTATTCC
With B11, in series [10], the Kd is 30 ± 10 nM.

B12: 2R6'-27 (dsDNA)
DNA 1: GGGTAAGATGGGTAAGATGGGTAAGAT
DNA 2: ATCTTACCCATCTTACCCATCTTACCC
The molecule B12 registered a dissociation constant (Kd) in series [11] of 877 nM.

B13: R2R3-18 (dsDNA)
DNA 1: AGTAGGAATAGGTGGAAA
DNA 2: TTTCCACCTATTCCTACT
Consider B13, for which the binding result in [12] is listed as “binds”.

B14: 2R3'-27 (dsDNA)
DNA 1: GGAAAAGGTGGAAAAGGTGGAAAAGGT
DNA 2: ACCTTTTCCACCTTTTCCACCTTTTCC
Turning to B14, the Kd in series [13] is 112 nM.

B15: R4-18+1 (dsDNA)
DNA 1: GAAAAGCCAGAAACAGTG
DNA 2: CACTGTTTCTGGCTTTTC
Consider B15, for which the binding result in [14] was “binds”.

B16: 1R6'-18 (dsDNA)
DNA 1: GGGTAAGATGGGTAAGAT
DNA 2: ATCTTACCCATCTTACCC
As for B16, the binding result in series [5] is given as “binds”.

B17: R4-18 (dsDNA)
DNA 1: GGAAAAGCCAGAAACAGT
DNA 2: ACTGTTTCTGGCTTTTCC
On to B17, for which the Kd in series [7] came to 60 ± 12 nM; in series [8], 87 ± 59 nM.

B18: R0-18 (dsDNA)
DNA 1: TGCTCGATCTGGCTATCC
DNA 2: GGATAGCCAGATCGAGCA
Take B18: the binding result in [9] is listed as “no binding”.

B19: R4-18+3 (dsDNA)
DNA 1: AAAGCCAGAAACAGTGGG
DNA 2: CCCACTGTTTCTGGCTTT
Turning to B19, in series [2], the binding result is reported as “binds”.

B20: R11-18 (dsDNA)
DNA 1: AGAACACGCCGAACGGCC
DNA 2: GGCCGTTCGGCGTGTTCT
As to B20, in series [9], the binding result is on record as “no binding”.

B21: R9-18 (dsDNA)
DNA 1: GGAATTGTTTGCTACGGT
DNA 2: ACCGTAGCAAACAATTCC
Consider B21, for which the Kd worked out at 17 ± 6 nM in [15] and 11 ± 9 nM in series [8].

B22: R4-18-1 (dsDNA)
DNA 1: TGGAAAAGCCAGAAACAG
DNA 2: CTGTTTCTGGCTTTTCCA
For B22, the binding result in series [14] is given as “binds”.
